Test results taken from US20240263161A1 (UNIVERSITY OF COPENHAGEN, published 2024).

Tests used:
[1] = target: secreted purified MUC1 TR reporter, WT glycoform (core2 sialylated O-glycans, HEK293 WT) (human) (UniProt P15941); assay: cell-based or functional assay
[2] = target: membrane bound MUC1 TR reporter on HEK293 WT cells (core2 O-glycans) (human) (UniProt P15941); assay: cell-based or functional assay
[3] = target: T1, secreted purified MUC5AC TR reporter, Tn glycoform (human, UniProt P98088 2708-2850); assay: microscale thermophoresis (MST), […]
T1 sequence: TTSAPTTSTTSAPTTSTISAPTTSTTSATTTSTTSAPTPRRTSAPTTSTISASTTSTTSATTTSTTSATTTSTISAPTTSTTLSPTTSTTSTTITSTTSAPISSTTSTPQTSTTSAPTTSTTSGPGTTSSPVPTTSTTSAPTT

[4] = target: secreted purified MUC1 TR reporter, WT glycoform (core2 sialylated O-glycans, HEK293 WT) (human, UniProt P15941 121-260); assay: microscale thermophoresis (MST), […]
[5] = target: T2, secreted purified MUC5AC TR reporter, WT glycoform (core2 sialylated O-glycans, HEK293 WT) (human, UniProt P98088 2708-2850); assay: microscale thermophoresis (MST), […]
T2 sequence: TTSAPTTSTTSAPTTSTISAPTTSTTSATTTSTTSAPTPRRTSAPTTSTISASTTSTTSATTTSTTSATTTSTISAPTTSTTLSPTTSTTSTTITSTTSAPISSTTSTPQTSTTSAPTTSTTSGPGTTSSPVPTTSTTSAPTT

[6] = target: secreted purified MUC21 TR reporter, Tn glycoform (human, UniProt Q5SSG8 130-278); assay: ELISA with purified secreted reporters
Sequence of secreted purified MUC21 TR reporter, Tn glycoform (Q5SSG8 130-278): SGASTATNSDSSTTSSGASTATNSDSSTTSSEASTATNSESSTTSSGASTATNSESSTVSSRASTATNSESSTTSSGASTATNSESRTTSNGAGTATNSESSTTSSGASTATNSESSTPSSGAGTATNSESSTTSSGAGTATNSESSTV

Sequence of secreted purified MUC1 TR reporter, WT glycoform (core2 sialylated O-glycans, HEK293 WT) (P15941 121-260): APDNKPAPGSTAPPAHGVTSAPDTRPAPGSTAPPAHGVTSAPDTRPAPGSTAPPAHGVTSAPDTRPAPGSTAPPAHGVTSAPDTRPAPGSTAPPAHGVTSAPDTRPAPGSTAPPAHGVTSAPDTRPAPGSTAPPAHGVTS
Sequence of membrane bound MUC1 TR reporter on HEK293 WT cells (core2 O-glycans) (human) (P15941 121-260 limits assumed): as the sequence (P15941 121-260) above
Sequence of secreted purified MUC1 TR reporter, WT glycoform (core2 sialylated O-glycans, HEK293 WT) (human) (P15941 121-260): as above

StcE (Secreted protease of C1 esterase inhibitor) wildtype, recombinant (from UniProt O82882 36-898) (enzyme)
cleavage, dose titration with the isolated reporter (SDS-PAGE) [1]: > 10 µg/mL | cleavage, dose titration on cells (flow cytometry) [2]: > 10 µg/mL

B1: AlexaFluoro647 labelled MBP-X409 (other)
chain: EGCIVSVNSGKRYCLPVGQRSGYSLPDWIVGQEVYVDSGAKAKVLLSDWDNLSYNRIGEFVGNVNPADMKKVKAWNGQYLDFSKPRSMRVVYK
Kd [3]: 37 nM | Kd [4]: 2600 nM | fold lower binding affinity (against MUC5Ac) [4]: > 1000 fold | Kd [5]: 14 nM

B2: X409 module of Escherichia coli O157:H7 StcE (tags of the construct not stated) (other)
chain: EGCIVSVNSGKRYCLPVGQRSGYSLPDWIVGQEVYVDSGAKAKVLLSDWDNLSYNRIGEFVGNVNPADMKKVKAWNGQYLDFSKPRSMRVVYK
binding result [6]: binds
